Numbering of substitutions follows the chain as printed.

For data set [1], the target named is T1, beta-NGF (nerve growth factor) (Homo sapiens, UniProt P01138 P01138:122-241). In words: cell_activity; Neuroscreen-1 neurite outgrowth. As to conditions: tags: R&D Systems human NGF; chain copies: 2. The method, then:
(§1) The neurite outgrowth inhibitory activity of aptamer was evaluated by using Neuroscreen-1 cell, which is a subclone of PC-12 cells. 2500 Cells per well were cultured for one day in an RPMI-1640 medium containing 2.5% horse serum and 1.25% fetal bovine serum in a 96 well flat-bottom plate coated with collagen type IV. A mixed solution of NGF (final concentration 15 ng/ml or 1.1 nM) prereacted in a serum-free RPMI-1640 medium at room temperature or 37° C. for 30 min to 1 hr and an aptamer (final concentration 500-3 nM) was added. Two or three days later, the cytoplasm and nuclei were stained using Cellomics Neurite Outgrowth Kits (manufactured by Thermo Scientific), and neurite length per cell was measured by Cellomics ArrayScan VTI (manufactured by Thermo Scientific). With the neurite length per cell obtained by culturing the cell for 2 days with the addition of NGF alone as inhibitory activity 0%, and that of the cell obtained by NGF free culture as inhibitory activity 100%, the inhibitory activity of the aptamer was calculated from the neurite length per cell obtained by culturing with the addition of NGF and the aptamer in mixture. […] When the inhibitory activity was 0% or below, ‘0%’ is indicated. When it was not less than 100%, ‘100%’ is indicated. The 50% inhibitory concentration was determined from the concentrations at two, above and below points sandwiching the 50% inhibitory activity.

The target of data set [2] is T1, beta-NGF (nerve growth factor). As to the kind of experiment: cell_activity; neurite outgrowth, Neuroscreen-1 cells. As to conditions: tags: R&D Systems; chain copies: 2. The method, then:
as §1

For data set [3] the target is unchanged. In words: SPR; blocks NGF-TrkA and NGF-P75. The conditions noted are these: tags: R&D Systems; chain copies: 2. The procedure: As directed in BIAcore Company's protocol, Protein A (21181, PIERCE) was immobilized on a CM5 sensor chip. About 1100 RU of human Trk A-Fc fused with the Fc portion of IgG (175-TK, R&D systems) was immobilized thereon. As the analyte, a mixture of NGF (0.1 μM) and each aptamer (0.33 μM) was injected after being allowed to stand for 30 minutes. […] When NGF binds stronger to a receptor than an aptamer, the aptamer may be removed and NGF may bind to the receptor. […] Using the binding amount of NGF and NGF receptor without an aptamer as 100, the binding amount of NGF and NGF receptor added with an aptamer was determined as a correction value. Here, the binding amount is the RU value at the peak top of the sensorgram of BIAcore (RU value immediately after completion of NGF injection). […] A similar experiment was performed for another receptor P75 (p75-Fc; R&D systems).
Background: In SPR one partner is held on a chip, and binding of the other changes the refractive index at the surface.

T1 sequence (P01138 122-241, one chain of several): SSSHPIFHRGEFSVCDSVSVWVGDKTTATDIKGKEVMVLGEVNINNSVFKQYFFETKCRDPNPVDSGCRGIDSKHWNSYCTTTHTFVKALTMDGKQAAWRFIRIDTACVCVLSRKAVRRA

B1: SEQ40 aptamer (ssRNA)
RNA: GGGAGAACUUCGACCAGAAGUUUGAAAAAAACCCAGGAAAAUGGAAGACGUAUGUGCGCAUACAUGGAUCCUCA
modifications: 2'-F pyrimidines
One may read the IC50 as the concentration needed to halve the response being measured. Regarding B1, the IC50 in data set [1] was 2.4 nM.

B2: SEQ64 aptamer (ssRNA)
RNA: B1 RNA with A28G, G36A, G37A, A39C, A41U, G43A, A45C, G47C, G50A
modifications: 2'-F pyrimidines
In the case of B2, in data set [1], half-maximal inhibition (IC50) was put at 4.8 nM.

B3: SEQ42 aptamer (ssRNA)
RNA: B1 RNA with G36A, G37A, A39G, A41G, U42C, G43A, A45C, C49G, G50A
modifications: 2'-F pyrimidines
With B3, in data set [1], 6.6 nM corresponded to half-maximal inhibition (IC50). This IC50 and that of the molecule before are within 1.5-fold of each other.

B4: SEQ6 aptamer (ssRNA)
RNA: GGGAAGCCUGUGGAGCUGCAGGAUGAAAAAAACCCAAAAUUAAAUAAAAAAUAGACGGUGCAUUGUCACCAACAACUGG
modifications: 2'-F pyrimidines
In turn, B4 had an IC50 in data set [1] of 17.7 nM.

B5: SEQ47 aptamer (ssRNA)
RNA: GGGAGAACUUCGACCAGAAGAAGUUUGAAAAGAACCCAAAAUGAGCAAAAUAUGUGCGCAUACAUGGAUCCUCA
modifications: 2'-F all pyrimidines
Consider B5, for which, in data set [2], half-maximal inhibition (IC50) required 14.6 nM. Moreover, the activity in data set [3] was not below 60 % inhibition.

B6: SEQ83 aptamer (ssRNA)
RNA: GGGAGAACUUCGACCAGAAGUUGAAGCUUGAAAAAAACCCAGGAUUAAACAGACAGUAUGUGCGCAUACAUGGAUCCUC
modifications: 2'-F pyrimidines
In data set [1], B6 showed an IC50 of 7.1 nM.

B7: SEQ12 aptamer (ssRNA)
RNA: GGGAAGCCUGUGGAGCUGCGAAACAGUGAAACAAACCACAGACUGAGAAAGCAGUAACAGCAUUGUCACCAACAACUGG
modifications: 2'-F pyrimidines
On to B7, for which half-maximal inhibition in data set [1] (IC50) was put at 43.4 nM. Compared with the last molecule, the IC50 is about 6.1-fold higher.

B8: SEQ53 aptamer (ssRNA)
RNA: GGGAGAACUUCGACCAGAAGUUUGAAAGGAACCCAAAAACACAAAAUGUCUAUGUGCGCAUACAUGGAUCCUCA
modifications: 2'-F all pyrimidines
In data set [2], B8 yielded an IC50 of less than 10 nM. Besides, the activity in data set [3] is not below 60 % inhibition.

Consider UGUGGAGCUGCUUAAACAAGCAAGUGAAAAAAACCACA (ssRNA, 2'-F pyrimidines) [SEQ32 aptamer], for which the IC50 in data set [1] came out at 84.7 nM. That is a double-digit nanomolar value.

B9: SEQ52 aptamer (ssRNA)
RNA: GGGAGAACUUCGACCAGAAGUUUGAAAGAAACCCAAAUAUACAAAACACUAUGUGCGCAUACAUGGAUCCUCA
modifications: 2'-F pyrimidines
For B9, in data set [1], the IC50 stood at 6.7 nM.

B10: SEQ49 aptamer (ssRNA)
RNA: GGGAGAACUUCGACCAGAAGUGAAAGAAACUCCCAAGACGGUAACGAAAGUAUGUGCGCAUACAUGGAUCCUCA
modifications: 2'-F pyrimidines
Molecule B10 yielded an IC50 in data set [1] of 4.6 nM.

B11: SEQ56 aptamer (ssRNA)
RNA: B10 RNA with G37C, G40A, G41A, U42A, A43U, A44G, G46A, A47C, G50C
modifications: 2'-F all pyrimidines
On to B11, for which the IC50 in data set [2] came out at 18.8 nM.

B12: SEQ50 aptamer (ssRNA)
RNA: B10 RNA with G26A, A29C, G37U, G40A, G41A, U42A, A43C, G46A, G50A
modifications: 2'-F all pyrimidines
B12: the IC50 in data set [2] is 25.4 nM. Also, the activity in data set [3] was not below 60 % inhibition.

B13: SEQ37 aptamer (ssRNA)
RNA: GGGAGAACUUCGACCAGAAGUUUGAAAGAAACCCAAAGGUGAAACAACAAUAUGUGCGCAUACAUGGAUCCUCA
modifications: 2'-F pyrimidines
With B13, the IC50 in data set [1] worked out at 6.6 nM. This counts as single-digit nanomolar.

B14: SEQ66 aptamer (ssRNA)
RNA: B13 RNA with G28A, G39C, U40A, G41A, A42G, A43C, A50U
modifications: 2'-F all pyrimidines
Consider B14, for which the IC50 in data set [2] is less than 10 nM. Moreover, the activity in data set [3] was not below 60 % inhibition.

B15: SEQ46 aptamer (ssRNA)
RNA: B13 RNA with G28C, G39U, G41A, A42C, A43G, A44C, C45A, A46C, C48A
modifications: 2'-F all pyrimidines
Consider B15, for which, in data set [2], half-maximal inhibition (IC50) was put at 25.4 nM. The molecule also displayed an activity in data set [3] not below 60 % inhibition.

B16: SEQ51 aptamer (ssRNA)
RNA: GGGAGAACUUCGACCAGAAGUUUGAAAGAAACCCAAAAAAACAACAUAUGAACUAUGUGCGCAUACAUGGAUCCUCA
modifications: 2'-F pyrimidines
Regarding B16, in data set [1], it took 11.9 nM to reach half-maximal inhibition (IC50).

B17: SEQ39 aptamer (ssRNA)
RNA: GGGAGAACUUCGACCAGAAGUGUGAAAAGAACCCAAAUAAAACAACAAUGUAUGUGCGCAUACAUGGAUCCUCA
modifications: 2'-F pyrimidines
B17: in data set [1], half-maximal inhibition (IC50) was put at 6.3 nM.

B18: SEQ59 aptamer (ssRNA)
RNA: GGGAGAACUUCGACCAGAAGUCGAAACGUUUGAAAAAAACCCAAGGAGGAUAUGUGCGCAUACAUGGAUCCUCA
modifications: 2'-F all pyrimidines
With B18, in data set [2], the IC50 came to 71.5 nM. This molecule yielded an activity in data set [3] not below 60 % inhibition.

B19: SEQ54 aptamer (ssRNA)
RNA: GGGAGAACUUCGACCAGAAGUCGAAAGUGAAAGAAACUCCAACGAAAGCAUAUGUGCGCAUACAUGGAUCCUCA
modifications: 2'-F pyrimidines
On to B19, for which, in data set [1], it took 7.6 nM to reach half-maximal inhibition (IC50).

B20: SEQ5 aptamer (ssRNA)
RNA: GGGAAGCCUGUGGAGCUGCUUAAACAAGCAAGUGAAAAAAACCACAGCAAAUGUAAAAAGCAUUGUCACCAACAACUGG
modifications: 2'-F pyrimidines
In data set [1], B20 showed a half-maximal inhibitory concentration (IC50) of 21 nM.

B21: SEQ55 aptamer (ssRNA)
RNA: GGGAGAACUUCGACCAGAAGUUUGAAAGAAACCCAAAAAUGAAUGCAACUAUGUGCGCAUACAUGGACCUCA
modifications: 2'-F all pyrimidines
As to B21, the IC50 in data set [2] worked out at 49.9 nM. For the same molecule, in data set [3], the activity was not below 60 % inhibition.

B22: SEQ63 aptamer (ssRNA)
RNA: GGGAGAACUUCGACCAGAAGAUUUGAAAGAAACCCAAACUAAGCACAAAAUAUGUGCGCAUACAUGGAUCCUCA
modifications: 2'-F all pyrimidines
Consider B22, for which, in data set [2], the IC50 was less than 10 nM. The activity in data set [3] was not below 60 % inhibition.

B23: SEQ43 aptamer (ssRNA)
RNA: GGGAGAACUUCGACCAGAAGCUUGAAAAAACCCCAAUAUGAGAAUCAUAUAUGUGCGCAUACAUGGAUCCUCA
modifications: 2'-F all pyrimidines
As to B23, in data set [2], the IC50 is less than 10 nM. In data set [3], the activity was not below 60 % inhibition.

B24: SEQ57 aptamer (ssRNA)
RNA: GGGAGAACUUCGACCAGAAGUUUGAAAAAAACCCAAACACCGAAGCACAAAUAUGUGCGCAUACAUGGAUCCUCA
modifications: 2'-F pyrimidines
Take B24: the IC50 in data set [1] came out at 6.4 nM.

B25: SEQ48 aptamer (ssRNA)
RNA: GGGAGAACUUCGACCAGAAGUUUGAAAAGAACCCGAAAAACGCAUAAUAAUAUGUGCGCAUACAUGGAUCCUCA
modifications: 2'-F all pyrimidines
In data set [2], B25 had an IC50 of 46.4 nM. The same molecule gave an activity in data set [3] not below 60 % inhibition.

In data set [1], GGGAUAAAAAUAGAGUUUGAUAAACACCUGUAUUAAAACCC (ssRNA, 2'-F pyrimidines) [SEQ30 aptamer] returned an IC50 of 57.6 nM.

B26: SEQ30(5) (ssRNA)
RNA: GGGAUAAAAAUAGAGUUUGAUAAACACCUGUAUUAAAACCC
modifications: 2'-F pyrimidines and some purines, 2'-OMe at many purines as printed in p174, 5' and 3' idT
Turning to B26, the IC50 in data set [1] was less than 100 nM.

B27: SEQ30(6) (ssRNA)
RNA: B26 RNA
modifications: 2'-F pyrimidines and some purines, 2'-OMe at most purines including g1-g3 as printed in p174, 5' and 3' idT
On to B27, for which the IC50 in data set [1] turned out to be 58.9 nM. In other words, the double-digit nanomolar range.

B28: SEQ38 aptamer (ssRNA)
RNA: GGGAGAACUUCGACCAGAAGAGAAUGAAACUCCACAAAGUACAUAAAACAUAUGUGCGCAUACAUGGAUCCUCA
modifications: 2'-F pyrimidines
In data set [1], B28 displayed an IC50 of 7.3 nM.

B29: SEQ35(6) (ssRNA)
RNA: GGGAAGCCUGUGGAGCUGCAGGAUGAAAAAAACCCAAA
modifications: 2'-F pyrimidines and a23, 2'-OMe at g1 g2 a4 a5 g6 g10 g12 g13 a14 g15 g18 a20 g21 g22 a29-a32 a36-a38, 5' and 3' idT
As to B29, the IC50 in data set [1] worked out at 73.5 nM.

B30: SEQ35(5) (ssRNA)
RNA: B29 RNA
modifications: 2'-F pyrimidines, 2'-OMe at g1 g2 a4 a5 g6 g10 g12 g13 a14 g15 g18 a20 g21 g22 a29-a32 a36-a38, 5' and 3' idT
B30: inhibition in data set [1] was half-maximal at 79.8 nM (IC50).

B31: SEQ35(1) (ssRNA)
RNA: B29 RNA
modifications: 2'-F pyrimidines, 2'-OMe at a4 a5 g6 g10 g12 g13 a14 g15 g18 a20 g21 g22, 5' and 3' idT
Molecule B31 gave an IC50 in data set [1] of 94.7 nM.

B32: SEQ45 aptamer (ssRNA)
RNA: GGGAGAACUUCGACCAGAAGAGAAUGAAACUCCCAAAUCAAGGACAAUGAUAUGUGCGCAUACAUGGAUCCUCA
modifications: 2'-F all pyrimidines
B32: in data set [2], the IC50 amounted to 20.2 nM. This molecule came in with an activity in data set [3] not below 60 % inhibition.

B33: SEQ67 aptamer (ssRNA)
RNA: GGGAGAACUUCGACCAGAAGUCGAUAACGAACAAAACUCCCAAAGGAAUAUAUGUGCGCAUACAUGGAUCCUCA
modifications: 2'-F pyrimidines
For B33, it took 2.7 nM to reach half-maximal inhibition in data set [1] (IC50). This lies in the single-digit nanomolar range.

These data come from patent publication US20110251266, “APTAMER FOR NGF AND USE THEREOF” (Shionogi & Co., Ltd., published 2011).
